Reference: patent publication US20170267762A1 (APOLLOMICS, published 2017)
Residue numbers refer to the chain shown, from its start.

T1: human ICOS (human, UniProt Q9Y6W8 21-140, limits assumed)
T1 sequence (looked up): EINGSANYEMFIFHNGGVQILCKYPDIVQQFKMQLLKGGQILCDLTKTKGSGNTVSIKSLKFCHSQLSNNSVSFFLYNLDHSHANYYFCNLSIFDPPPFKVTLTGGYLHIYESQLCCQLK

T2: human CTLA4 (human, UniProt P16410 36-161, limits assumed)
T2 sequence (looked up): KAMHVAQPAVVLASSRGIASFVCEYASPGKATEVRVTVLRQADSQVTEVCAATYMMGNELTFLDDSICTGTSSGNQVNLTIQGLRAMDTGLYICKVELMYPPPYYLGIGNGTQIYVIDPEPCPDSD

T3: mouse PD-1 (mouse, UniProt Q02242 25-169, limits assumed)
T3 sequence (looked up): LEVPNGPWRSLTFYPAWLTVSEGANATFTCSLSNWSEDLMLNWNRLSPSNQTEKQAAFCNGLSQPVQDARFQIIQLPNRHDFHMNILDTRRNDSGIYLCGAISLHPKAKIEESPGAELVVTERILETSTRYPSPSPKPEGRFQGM

B1: 14A6 murine anti-PD-1 antibody (antibody, V domains shown)
VH: DVQLQESGPGLVKPSQSLSLTCTVTGYSITSDYAWNWIRQFPGNQLEWMAYISYSGYTSYNPSLKSRISITRDTSRNQFFLQLNSVTTEDTATYYCARSLDYDYGTMDYWGQGTSVTVSS
VL: QIVLSQSPAILSASPGEKVTMTCRANSSVSSMHWYQQKPGSSPEPWIYAISNLAFGVPARFSGSGSGTSYSLTISRVEAEDAATYFCQQWNSRPPTFGGGTKLEIKR
notes: Purified hybridoma antibody; also called 14A6-mIgG1
B2: 5A8 murine anti-PD-1 antibody (antibody, V domains shown)
VH: QVQLQQSGDELVRPGTSVKMSCKAAGYTFTNNWIGWVKQRPGHGLEWIGDFYPGGGYTNYNEKFKGKATLTADTSSSTAYMQLSSLTSEDSAIYYCARGYGTNYWYFDVWGAGTTVTVSS
VL: NIVMTQTPKILFISAGDRVTITCKASQSVSNDVAWYQQKPGQSPKLLIYYAFTRYIGVPDRFTGSGYGTDFTFTISTVQAEDLAVYFCQQDYSSPYTFGGGTKLEIKR
notes: Purified hybridoma antibody; also called 5A8-mIgG1
B3: 10D1 murine anti-PD-1 antibody (antibody, V domains shown)
VH: EVKLVESGGGLVKPGGSLKLSCAASGFTFSSYGMSWLRQTPEKRLEWVATMSGGGRDIYYPDSMKGRFTISRDNAKNNLYLQMSSLRSEDTALYYCARQYYDDWFAYWGQGTLVTVSA
VL: DIVLTQTPATLSVTPGDSVSLSCRASQSISNNLHWYQQKSHESPRLLIKYASQSISGIPSRFSGSGSGTDFTLNINSVETEDFGMYFCQQSNSWPLTFGAGTKLELKR
notes: Purified hybridoma antibody; also called 10D1-mIgG1
B4: chimeric 15H5-hIgG4 (antibody, V domains shown)
VH: EVKLVESGGGLVKPGGSLKLSCAASGFAFRSYDMSWVRQTPEKILEWVATISGGGSYTYYQDSVKGRFTISRDNARNTLYLQMSSLRSEDTALYYCASPYGPYFDYWGQGTTLTVSS
VL: DIQMNQSPSSLSASLGDTITITCHASQSINVWLSWYQQKPGNIPKLLIYRASNLHTGVPSRFSGSGSGTGFTLTISSLQPDDIATYYCQQGQSYPWTFGGGTKLEIKR
notes: Mouse variable regions with human IgG4 constant region
B5: chimeric 7D3-hIgG4 (antibody, V domains shown)
VH: B3 VH with A23G, L37V, M51I, M64V, F68L, A97V
VL: B3 VL with T7S, N32D, A51V, N74S, N92D
notes: as for B4
B6: chimeric 6E1-hIgG4 (antibody, V domains shown)
VH: B3 VH with L37V, M51I, I58T, P61L, M64V, A97V, T115S, V116N
VL: B3 VL with I29L, N74S, L106M
notes: as for B4
B7: chimeric 22A5-hIgG4 (antibody, V domains shown)
VH: EVKLVESGGGLVKPGGSLKLSCSASGFSFSYYDMSWVRQTPEKGLEWVATISGGGRNTYFIDSVKGRFTISRDNVKNNLYLLMSSLRSEDTALYYCASPYEGAVDFWGQGTSVTVSS
VL: DIVMTQSHKVMSTSVGDRVSITCKASQDVDNAVAWYQQNPGQSPKLLIKWASTRHHGVPDRFTGSGSGTDFTLTISTVQSEDLADFFCQQYSTFPYTFGGGTKLEIKR
notes: as for B4

target: T4, human PD-1 extracellular domain fused with mouse Fc (PD-1-mFc) (human, UniProt Q15116 25-170); experiment: blockage ELISA, competitor PDL-1-mFc-biotin (summary table; IC50 in ng/ml in Table 2)
T4 construct: extracellular domain; not used because of the label; also called hPD-1-mFc; human PD-1-mouse Fc fusion protein
Experimental: (§1) PD-1-mFc antigen (CrownBio) was suspended in PBS (Hyclone,Cat No:SH30256.01B) buffer (2 ug/ml, 100 ul/ well) and coated on the 96 well plate (costar, Cat No.:9018) 4° C. overnight. Plates were washed 3 times using washing buffer: PBS+0.05% Tween 20(Sigma, Cat No.:P1379). 200 ul of blocking buffer (PBS+1%BSA(Roche, Cat No.:738328)), was added to each well, incubated at 37° C. for 1 hour, and washed 3 times. Various concentrations (suitable dilutions of hybridoma supernatant in PBS) of the anti-PD-1 Abs were added to the wells (100 μl/well) and incubated at 37° C. for 1 hour. […] Secondary antibody (Avidin HRP eBioscience cat No.:E07418-1632, 1:500, 100 ul/well) was added, incubated at 37 ° C. for 0.5 hour, and washed 3 times. TMB (Sigma, Cat No.: T0440, 100 ul/well) was added, and incubated for 3 min at RT. To stop the reaction, 2N H2SO4 (100 ul/well), was added. The colorimetric signals were developed and read at 450 nm using a Auto Plate SpectraMax Plus (Supplier: Molecular Devices; Model: MNR0643; Software: SoftMax Pro v5.4).

T4 sequence (Q15116 25-170): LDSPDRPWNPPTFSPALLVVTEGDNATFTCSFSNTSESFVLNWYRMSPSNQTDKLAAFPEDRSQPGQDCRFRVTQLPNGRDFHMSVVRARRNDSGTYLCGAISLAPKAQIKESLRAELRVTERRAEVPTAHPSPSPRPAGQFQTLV

Row | IC50 [µg/mL] | Binder
1 | 0.923 | B1
2 | 1.13 | B2
3 | 1.41 | B3

target: T5, human PD-1 on cells (293T cells transfected with human PD-1) (human, UniProt Q15116 25-288); experiment: FACS blockage on hPD-1-293T cells, competitor biotin PD-L2
T5 construct: whole, on cells; Also used as the target for the functional rows, where PD-1 stands on human T cells
Experimental: (§2) Various concentrations of the testing hybridoma antibodies were added to the cell suspension and incubated at 4° C. for 60 minutes in 96 well plates. […] Plates were washed 3 times, and mouse anti-biotin PE antibody (Biolgend, cat# 409004) was added. Flow cytometric analyses were performed using a FACS Array.
(§3) The purified hybridoma antibodies were characterized further based on ELISA and FACS analyses.

T5 sequence (Q15116 25-288): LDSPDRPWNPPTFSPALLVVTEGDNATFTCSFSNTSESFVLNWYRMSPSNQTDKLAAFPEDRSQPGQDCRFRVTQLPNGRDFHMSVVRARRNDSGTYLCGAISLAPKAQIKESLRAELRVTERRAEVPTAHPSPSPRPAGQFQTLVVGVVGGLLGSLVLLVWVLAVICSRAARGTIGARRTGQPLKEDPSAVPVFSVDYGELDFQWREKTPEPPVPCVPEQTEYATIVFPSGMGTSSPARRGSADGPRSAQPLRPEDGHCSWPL

Row | IC50 [µg/mL] | Binder
4 | 0.092 | B1
5 | 0.0188 | B2
6 | 0.15 | B3

target: T5, human PD-1 on cells (293T cells …); experiment: FACS on hPD-1-293T cells
Experimental: The cells were incubated with the indicated antibody (20 ug/ml with the dilution of ⅕) at 4° C. for 1 h. Cells were washed three times with FACS buffer. A secondary antibody (PE Goat anti-mouse: 1:200; PE mouse anti-human: 1:10) was added to the cells at 100 ul/well, and incubated at 4° C. for 40min. Cells were washed three times with FACS buffer and analyzed by FACS Array.
(§4) Freestyle 293 cells (200 mL at 10⁶/mL) were transfected with 100 μg of each of the chimeric heavy and light chain expression plasmids and cultured for 6 days. The chimeric antibody in the supernatant was then purified with Protein-G column (GE healthcare).

Row | EC50 [µg/mL] | Binder
7 | 0.244 | B4
8 | 0.131 | B5
9 | 0.143 | B6
10 | 0.145 | B7

target: T6, human PD-1 extracellular domain fused with human Fc tag (hPD-1-hFc) (human); experiment: ELISA on coated PD1-hFc
T6 construct: also called human PD-1-hFc
Experimental: (§5) ELISA binding analysis was conducted based on human PD-1-hFc Protein. 96-well plates (Costar, Cat No:9018) were coated with 100 μL of 2 μg/ml PD1-hFc (CrownBio) in coating buffer (PBS, Hyclone, Cat No:SH30256.01B) overnight at 4° C. The wells were aspirated and non-specific binding sites were blocked by adding 200 μL of blocking buffer with 1% (w/v) of bovine serum albumin (BSA, Roche, Cat No: 738328) and incubating for 1 hour at 37° C. After the plates are washed three times with wash buffer (PBS with 0.05%(v/v) Tween20 (Sigma, Cat No:P1379), 100 μL/well of a suitable dilutions of hybridoma supernatant in blocking buffer were added and incubated at room temperature for 1 hour. The plates were washed and incubated with 100 μL/well of Goat anti-Mouse IgG (H+L) (Thermo, Cat No: 31432) in blocking buffer for 60 min. After the plates were washed, 100 μL/well of substrate solution (TMB(eBioscience, Cat No:00-4201-56) was added and the plates were incubated for 2min at room temperature. 100 μL/well of stop solution (2N H2SO4) was added to stop the reaction. The colorimetric signals were developed and read at 450 nm using a Auto Plate SpectraMax Plus (Supplier: Molecular Devices; Model: MNR0643; Software: SoftMax Pro v5.4).
as §4

T6 sequence (chain, as listed by the source limits assumed): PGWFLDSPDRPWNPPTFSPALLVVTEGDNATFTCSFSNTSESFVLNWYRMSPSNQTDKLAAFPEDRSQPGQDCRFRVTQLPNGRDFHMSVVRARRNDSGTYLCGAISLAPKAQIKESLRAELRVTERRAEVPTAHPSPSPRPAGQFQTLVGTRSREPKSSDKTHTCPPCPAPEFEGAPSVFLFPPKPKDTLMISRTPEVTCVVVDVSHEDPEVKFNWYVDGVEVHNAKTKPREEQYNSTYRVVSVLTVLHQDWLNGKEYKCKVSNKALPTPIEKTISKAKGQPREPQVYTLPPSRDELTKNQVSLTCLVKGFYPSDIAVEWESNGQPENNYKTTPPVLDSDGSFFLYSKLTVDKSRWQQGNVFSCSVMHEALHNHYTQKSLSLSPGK

Row | EC50 [µg/mL] | Binder
11 | 0.0818 | B4
12 | 0.0517 | B5
13 | 0.0325 | B6
14 | 0.0413 | B7

target: T7, human PD-1 (construct not stated) (human, UniProt Q15116 25-167, limits assumed); experiment: Biacore (summary table; unit from Table 7)
T7 construct: also called PD-1 analyte
Experimental: (§6) To further characterize the binding characteristics of the antibodies, 10 hybridoma antibodies were profiled using Biacore (Biacore 3000, GE) to elucidate binding kinetics and calculate equilibrium binding constants. This assay was performed by capture method, using the mouse antibody capture kit (BR-1008-38, GE). After diluting anti-mouse Fc mab to 25 μg/ml in pH 5.0 immobilization buffer, immobilization was conducted with the parameters shown in Table 6 at a flow rate of 5 μl/min. The kinetic runs were done by 1) injecting ligand for typical 0.5-1 min at flow rate of 10 μl/min.; 2) injecting analytes of choice for typical 3 min followed by dissociation in running buffer (1× PBS-P20) for typical 5-10 min at flow rate of 30 μl/min.; and 3) injecting regeneration solution 10 mM Glycine pH1.7 for typical 1-2 min at flow rate of 10 μl/min.

T7 sequence (Q15116 25-167 limits assumed): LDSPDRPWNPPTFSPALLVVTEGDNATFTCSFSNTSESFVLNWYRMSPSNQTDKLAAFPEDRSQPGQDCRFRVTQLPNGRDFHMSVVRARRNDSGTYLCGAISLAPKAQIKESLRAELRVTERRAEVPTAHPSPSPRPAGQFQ

Row | Kd [nM] | Binder
15 | 0.03 | B1
16 | 0.0587 | B2
17 | 0.0623 | B3

target: T5, human PD-1 on cells (293T cells …); experiment: FACS blockage on hPD-1-293T cells, competitor biotin PD-L1
Experimental: as §2, §4

Row | IC50 [µg/mL] | Binder
18 | 0.101 | B4
19 | 0.054 | B6
20 | 0.0843 | B7

target: T5, human PD-1 on cells (293T cells …); experiment: as above; remark: another data set of the same source
Experimental: as §2, §3

Row | IC50 [µg/mL] | Binder
21 | 0.0211 | B1
22 | 0.0282 | B2
23 | 0.0369 | B3

target: T6, human PD-1 extracellular domain fused …; experiment: ELISA on coated PD1-hFc; remark: another data set of the same source
Experimental: as §5, §3

Row | EC50 [µg/mL] | Binder
24 | 0.00707 | B1
25 | 0.0112 | B2
26 | 0.0172 | B3

target: T1, human ICOS; experiment: Interaction with CTLA4, ICOS CD28; assay not detailed

Row | binding result | Binder
27 | no binding | B1
28 | no binding | B2
29 | no binding | B3

target: human CD28 (human, UniProt P10747 19-152, limits assumed); experiment: as above
Sequence (P10747 19-152 limits assumed): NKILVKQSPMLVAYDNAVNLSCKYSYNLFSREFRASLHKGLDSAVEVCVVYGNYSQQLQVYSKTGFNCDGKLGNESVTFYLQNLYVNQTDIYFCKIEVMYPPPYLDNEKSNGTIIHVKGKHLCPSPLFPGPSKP

Row | binding result | Binder
30 | no binding | B1
31 | no binding | B2
32 | no binding | B3

target: T2, human CTLA4; experiment: as above

Row | binding result | Binder
33 | no binding | B1
34 | no binding | B2
35 | no binding | B3

target: T7, human PD-1 (construct not stated); experiment: Biacore, antibody captured, PD-1 analyte
Experimental: as §6

Row | Ka [M⁻¹] | Kd [nM] | koff [s⁻¹] | kon [M⁻¹ s⁻¹] | Binder
36 | 3.33e+10 | 0.03 | 4.52e-05 | 1.51e+06 | B1
37 | 1.7e+10 | 0.0587 | 7.55e-05 | 1.29e+06 | B2
38 | 1.6e+10 | 0.0623 | 5.24e-05 | 840000 | B3

target: T6, human PD-1 extracellular domain fused …; experiment: ELISA binding (summary table)
Experimental: as §5, §3

Row | EC50 [µg/mL] | Binder
39 | 0.00707 | B1
40 | 0.0112 | B2
41 | 0.0172 | B3

target: T3, mouse PD-1; experiment: assays not detailed

Row | binding result | Binder
42 | no binding | B1
43 | no binding | B2
44 | no binding | B3

target: T4, human PD-1 extracellular domain fused …; experiment: blockage ELISA, coated PD-1-mFc, competitor PDL-1-mFc-biotin
Experimental: as §1, §3

Row | IC50 [µg/mL] | Binder
45 | 0.923 | B1
46 | 1.13 | B2
47 | 1.41 | B3

target: T4, human PD-1 extracellular domain fused …; experiment: as above; remark: another data set of the same source
Experimental: as §1, §4

Row | IC50 [µg/mL] | Binder
48 | 1.37 | B4
49 | 0.948 | B5
50 | 0.869 | B6
51 | 1.01 | B7
